13 molecules from article PMC8492067 (eLife, 2021) can be followed below.

One data set deals with T1, NrnCBh (Bartonella henselae, UniProt A0A0R4J6U7).
T1 construct: gene rnd1
Description: DraCALA nitrocellulose spot binding, radiolabelled ligand.

The data set “crystal structure” deals with the molecule itself. The data set can be described thus: crystal structure.
The data set “SEC-MALS” deals with the molecule itself. The data set can be described thus: SEC-MALS. For orientation: SEC sorts molecules by how far they enter the pores of the column.
Data set [1] deals with T2, NrnCBh (nano-RNase C) (Bartonella henselae, UniProt A0A0R4J6U7 1-206).
T2 sequence: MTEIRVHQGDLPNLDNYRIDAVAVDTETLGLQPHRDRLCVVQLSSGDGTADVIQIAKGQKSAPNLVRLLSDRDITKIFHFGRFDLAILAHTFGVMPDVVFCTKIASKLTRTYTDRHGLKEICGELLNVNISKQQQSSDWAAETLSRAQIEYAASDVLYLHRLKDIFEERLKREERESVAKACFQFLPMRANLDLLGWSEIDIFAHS
The data set can be described thus: cryo-EM; only 3' dinucleotide resolved; DraCALA: 10 mM Tris-HCl pH 8, 100 mM NaCl, 5 mM CaCl2; temperature not stated. To be noted: protein: recombinant; tags: tag-less (His6-SUMO removed by Ulp-1); chain copies: 8.

In data set [2] the target is T2, NrnCBh (nano-RNase C). Description: DraCALA (nitrocellulose); DraCALA: 10 mM Tris-HCl pH 8, 100 mM NaCl, 5 mM CaCl2; temperature not stated. The note with it: protein: recombinant; tags: tag-less (His6-SUMO removed by Ulp-1); chain copies: 8.
Data set [3] deals with T2, NrnCBh (nano-RNase C). Description: cryo-EM; DraCALA: 10 mM Tris-HCl pH 8, 100 mM NaCl, 5 mM CaCl2; temperature not stated. The note with it: protein: recombinant; tags: tag-less (His6-SUMO removed by Ulp-1); chain copies: 8.

Usually Kd stands for the free concentration of one partner at which half of the binding sites on the other are occupied at equilibrium, for simple one-to-one binding. In turn, `Nc1nc2c(ncn2[C@@H]2O[C@H](COP(=O)(O)O[C@H]3[C@@H](O)[C@H](n4cnc5c(=O)[nH]c(N)nc54)O[C@@H]3COP(=O)(O)O)[C@@H](O)[C@H]2O)c(=O)[nH]1` [pGG] registered a Kd on NrnCBh of 17.7 nM.
As to `Nc1nc2c(ncn2[C@@H]2O[C@H](COP(=O)(O)O[C@H]3[C@@H](O)[C@H](n4cnc5c(=O)[nH]c(N)nc54)O[C@@H]3COP(=O)(O)O[C@H]3[C@@H](O)[C@H](n4cnc5c(N)ncnc54)O[C@@H]3COP(=O)(O)O)[C@@H](O)[C@H]2O)c(=O)[nH]1` [pAGG], at NrnCBh, the Kd was found to be 3490 nM.

B1: Bartonella henselae nano-RNase C (NrnC), wild type (enzyme)
chain: MTEIRVHQGDLPNLDNYRIDAVAVDTETLGLQPHRDRLCVVQLSSGDGTADVIQIAKGQKSAPNLVRLLSDRDITKIFHFGRFDLAILAHTFGVMPDVVFCTKIASKLTRTYTDRHGLKEICGELLNVNISKQQQSSDWAAETLSRAQIEYAASDVLYLHRLKDIFEERLKREERESVAKACFQFLPMRANLDLLGWSEIDIFAHS
notes: also called NrnCBh; wild-type NrnCBh
The term stoichiometry N denotes the number of molecules, sites or subunits per partner or assembly. Consider B1, for which the “stoichiometry N” value in the data set “crystal structure” worked out at 8.

B2: Bartonella henselae NrnC K103A (enzyme)
chain: MTEIRVHQGDLPNLDNYRIDAVAVDTETLGLQPHRDRLCVVQLSSGDGTADVIQIAKGQKSAPNLVRLLSDRDITKIFHFGRFDLAILAHTFGVMPDVVFCTAIASKLTRTYTDRHGLKEICGELLNVNISKQQQSSDWAAETLSRAQIEYAASDVLYLHRLKDIFEERLKREERESVAKACFQFLPMRANLDLLGWSEIDIFAHS
notes: Phosphate cap mutant
Turning to B2, the “stoichiometry N” value in “SEC-MALS” came out at 8.

B3: Bartonella henselae NrnC H205A (enzyme)
chain: MTEIRVHQGDLPNLDNYRIDAVAVDTETLGLQPHRDRLCVVQLSSGDGTADVIQIAKGQKSAPNLVRLLSDRDITKIFHFGRFDLAILAHTFGVMPDVVFCTKIASKLTRTYTDRHGLKEICGELLNVNISKQQQSSDWAAETLSRAQIEYAASDVLYLHRLKDIFEERLKREERESVAKACFQFLPMRANLDLLGWSEIDIFAAS
Regarding B3, in “SEC-MALS”, the “stoichiometry N” value turned out to be 8.

B4: Bartonella henselae NrnC H79A (enzyme)
chain: MTEIRVHQGDLPNLDNYRIDAVAVDTETLGLQPHRDRLCVVQLSSGDGTADVIQIAKGQKSAPNLVRLLSDRDITKIFAFGRFDLAILAHTFGVMPDVVFCTKIASKLTRTYTDRHGLKEICGELLNVNISKQQQSSDWAAETLSRAQIEYAASDVLYLHRLKDIFEERLKREERESVAKACFQFLPMRANLDLLGWSEIDIFAHS
notes: Phosphate cap mutant
Take B4: the “stoichiometry N” value in the data set “SEC-MALS” came out at 8.

B5: Bartonella henselae NrnC D25A (enzyme)
chain: MTEIRVHQGDLPNLDNYRIDAVAVATETLGLQPHRDRLCVVQLSSGDGTADVIQIAKGQKSAPNLVRLLSDRDITKIFHFGRFDLAILAHTFGVMPDVVFCTKIASKLTRTYTDRHGLKEICGELLNVNISKQQQSSDWAAETLSRAQIEYAASDVLYLHRLKDIFEERLKREERESVAKACFQFLPMRANLDLLGWSEIDIFAHS
Take B5: the “stoichiometry N” value in “SEC-MALS” came out at 8.

B6: Bartonella henselae NrnC Y151A (enzyme)
chain: MTEIRVHQGDLPNLDNYRIDAVAVDTETLGLQPHRDRLCVVQLSSGDGTADVIQIAKGQKSAPNLVRLLSDRDITKIFHFGRFDLAILAHTFGVMPDVVFCTKIASKLTRTYTDRHGLKEICGELLNVNISKQQQSSDWAAETLSRAQIEAAASDVLYLHRLKDIFEERLKREERESVAKACFQFLPMRANLDLLGWSEIDIFAHS
B6: the “stoichiometry N” value in the data set “SEC-MALS” turned out to be 8.

B7: Bartonella henselae NrnC L31A (enzyme)
chain: MTEIRVHQGDLPNLDNYRIDAVAVDTETLGAQPHRDRLCVVQLSSGDGTADVIQIAKGQKSAPNLVRLLSDRDITKIFHFGRFDLAILAHTFGVMPDVVFCTKIASKLTRTYTDRHGLKEICGELLNVNISKQQQSSDWAAETLSRAQIEYAASDVLYLHRLKDIFEERLKREERESVAKACFQFLPMRANLDLLGWSEIDIFAHS
notes: L-wedge mutant
As to B7, the “stoichiometry N” value in the data set “SEC-MALS” was 8.

B8: Brucella melitensis nano-RNase C (NrnC), wild type (enzyme)
chain: MTIRFHRNDLPNLDNYQVDAVAIDTETLGLNPHRDRLCVVQISPGDGTADVIQIEAGQKKAPNLVKLLKDRSITKIFHFGRFDLAVLAHAFGTMPQPVFCTKIASKLTRTYTDRHGLKEICSELLDVSISKQQQSSDWAAEVLSQAQLEYAASDVLYLHRLKAVLEQRLERDGRTKQAEACFKFLPTRSELDLMGWAESDIFAHS
notes: also called NrnCBm
Consider B8, for which the “stoichiometry N” value in the data set “crystal structure” is 8.

B9: pAGG (ssRNA)
RNA: AGG
modifications: 5' phosphate
Turning to B9, in the data set with NrnCBh (nano-RNase C) [1], the binding result is “binds”.

B10: pAAAAAGG (ssRNA)
RNA: AAAAAGG
modifications: 5' phosphate
Regarding B10, the Kd in the data set with NrnCBh (nano-RNase C) [2] worked out at 576 nM.

B11: pAAAGG (ssRNA)
RNA: AAAGG
modifications: 5' phosphate
As to B11, the binding result with NrnCBh (nano-RNase C) [3] was “binds”.
